Assay results reported in patent US20220332804A1 (CSL INNOVATION, published 2022).

Experiments:
Test in all cases: SPR, mAb captured, C2 mutant analyte;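 note: Anti-C2 mAbs captured on goat anti-human IgG Biacore CM5 chips, alanine or serine C2 surface mutants flowed over at 37 °C, double-referenced sensorgrams fitted to a 1:1 binding model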
human C2 N268A = molecular target: T1, human C2 N268A (human, UniProt P06681 21-752)
T1 sequence: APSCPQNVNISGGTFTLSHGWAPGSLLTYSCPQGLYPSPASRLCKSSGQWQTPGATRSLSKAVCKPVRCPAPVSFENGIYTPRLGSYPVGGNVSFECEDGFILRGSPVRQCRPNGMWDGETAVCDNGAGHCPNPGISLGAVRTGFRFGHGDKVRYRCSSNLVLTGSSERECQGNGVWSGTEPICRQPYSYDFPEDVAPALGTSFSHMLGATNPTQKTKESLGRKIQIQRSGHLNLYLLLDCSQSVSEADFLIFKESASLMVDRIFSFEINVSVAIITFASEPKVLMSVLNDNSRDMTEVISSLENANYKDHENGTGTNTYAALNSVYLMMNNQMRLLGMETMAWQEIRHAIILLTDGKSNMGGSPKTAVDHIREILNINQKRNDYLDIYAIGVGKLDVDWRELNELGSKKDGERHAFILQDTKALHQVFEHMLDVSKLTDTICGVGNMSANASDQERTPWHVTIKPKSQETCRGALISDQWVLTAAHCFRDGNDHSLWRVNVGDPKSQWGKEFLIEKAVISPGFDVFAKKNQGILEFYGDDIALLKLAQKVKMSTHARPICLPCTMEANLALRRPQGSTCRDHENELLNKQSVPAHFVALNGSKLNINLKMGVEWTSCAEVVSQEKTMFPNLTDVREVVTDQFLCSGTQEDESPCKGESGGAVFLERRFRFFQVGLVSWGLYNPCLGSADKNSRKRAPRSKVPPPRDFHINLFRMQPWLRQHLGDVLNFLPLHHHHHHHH

human C2 S428A = molecular target: T2, human C2 S428A (human, UniProt P06681 21-752)
T2 sequence: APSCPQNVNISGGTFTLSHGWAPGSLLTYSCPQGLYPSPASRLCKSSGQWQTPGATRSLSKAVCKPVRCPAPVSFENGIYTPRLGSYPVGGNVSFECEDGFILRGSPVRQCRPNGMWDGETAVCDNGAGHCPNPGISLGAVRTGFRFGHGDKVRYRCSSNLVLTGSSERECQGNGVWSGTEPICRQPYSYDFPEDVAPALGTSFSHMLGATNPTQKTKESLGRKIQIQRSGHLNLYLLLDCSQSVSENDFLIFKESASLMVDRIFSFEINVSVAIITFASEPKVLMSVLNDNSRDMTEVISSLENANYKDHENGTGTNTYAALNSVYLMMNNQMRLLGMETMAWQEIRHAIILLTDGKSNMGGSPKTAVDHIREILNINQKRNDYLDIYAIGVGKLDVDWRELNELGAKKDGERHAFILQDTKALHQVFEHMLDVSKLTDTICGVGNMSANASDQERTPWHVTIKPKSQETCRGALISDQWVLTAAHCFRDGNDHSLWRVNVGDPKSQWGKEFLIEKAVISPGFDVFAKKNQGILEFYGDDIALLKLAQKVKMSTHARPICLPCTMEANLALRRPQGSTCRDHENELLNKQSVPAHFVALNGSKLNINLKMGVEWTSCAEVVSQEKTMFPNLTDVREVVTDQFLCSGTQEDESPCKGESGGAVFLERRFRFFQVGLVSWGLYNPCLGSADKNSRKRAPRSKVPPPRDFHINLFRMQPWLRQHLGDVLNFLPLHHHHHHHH

human C2 F437A = molecular target: T3, human C2 F437A (human, UniProt P06681 21-752)
T3 sequence: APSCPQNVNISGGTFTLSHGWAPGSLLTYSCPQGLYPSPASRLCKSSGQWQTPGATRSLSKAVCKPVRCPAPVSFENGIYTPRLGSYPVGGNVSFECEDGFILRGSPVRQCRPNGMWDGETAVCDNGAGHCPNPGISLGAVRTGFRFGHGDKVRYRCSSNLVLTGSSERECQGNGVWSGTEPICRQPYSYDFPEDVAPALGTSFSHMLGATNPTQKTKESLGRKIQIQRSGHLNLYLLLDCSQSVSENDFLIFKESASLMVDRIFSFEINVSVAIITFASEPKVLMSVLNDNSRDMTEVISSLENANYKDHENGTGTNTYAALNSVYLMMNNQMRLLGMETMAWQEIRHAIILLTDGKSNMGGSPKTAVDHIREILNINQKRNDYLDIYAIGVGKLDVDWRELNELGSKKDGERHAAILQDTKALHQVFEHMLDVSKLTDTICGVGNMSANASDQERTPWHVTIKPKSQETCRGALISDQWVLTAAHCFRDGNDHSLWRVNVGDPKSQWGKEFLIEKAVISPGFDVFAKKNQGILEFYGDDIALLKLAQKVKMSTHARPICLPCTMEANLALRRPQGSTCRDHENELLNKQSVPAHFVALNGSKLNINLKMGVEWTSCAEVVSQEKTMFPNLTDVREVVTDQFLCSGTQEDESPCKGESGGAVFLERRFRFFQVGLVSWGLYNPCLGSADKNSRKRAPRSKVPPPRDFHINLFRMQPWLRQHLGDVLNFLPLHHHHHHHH

human C2 S469A = molecular target: T4, human C2 S469A (human, UniProt P06681 21-752)
T4 sequence: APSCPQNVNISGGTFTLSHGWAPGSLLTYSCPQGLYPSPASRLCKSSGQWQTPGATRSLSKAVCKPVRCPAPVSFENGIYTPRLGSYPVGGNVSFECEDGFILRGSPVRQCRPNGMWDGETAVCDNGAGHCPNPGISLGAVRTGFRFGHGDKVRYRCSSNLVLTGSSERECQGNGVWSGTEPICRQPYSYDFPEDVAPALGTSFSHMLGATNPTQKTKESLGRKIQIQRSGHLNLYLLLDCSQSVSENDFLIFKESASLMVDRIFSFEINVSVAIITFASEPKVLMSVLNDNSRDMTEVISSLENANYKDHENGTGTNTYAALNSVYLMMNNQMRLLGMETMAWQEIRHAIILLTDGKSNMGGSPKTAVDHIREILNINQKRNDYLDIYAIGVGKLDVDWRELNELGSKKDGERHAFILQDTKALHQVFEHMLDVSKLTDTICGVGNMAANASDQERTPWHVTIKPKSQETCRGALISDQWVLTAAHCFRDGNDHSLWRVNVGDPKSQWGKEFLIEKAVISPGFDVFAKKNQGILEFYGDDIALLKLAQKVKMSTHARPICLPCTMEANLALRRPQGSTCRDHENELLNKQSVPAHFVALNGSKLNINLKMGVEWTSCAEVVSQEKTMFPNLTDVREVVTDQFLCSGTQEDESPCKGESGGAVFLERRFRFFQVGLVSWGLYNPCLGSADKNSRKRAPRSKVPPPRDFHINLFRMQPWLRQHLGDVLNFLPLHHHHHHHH

Kd (human C2 N268A): 60.8 nM
Kd (human C2 S428A): 58.6 nM
Kd (human C2 F437A): 381 nM
Kd (human C2 S469A): 106 nM
B1: RF16-214 (antibody, V domains shown)
VH: EVQLLESGGGLVQPGGSLRLSCAASGFTFSWYQMMWVRQAPGKGLEWVSRIYPSGGGTAYADSVKGRFTISRDNSKNTLYLQMNSLRAEDTAVYYCARDAGYGDNWGQGTLVTVSS
VL: QSALTQPPSVSVSPGQTASITCSGDKLGEKYASWYQQKAGQSPVMVIYQDRKRPSGIPERFSGSNSGNTATLTISGTQAMDEADYYCQAWDTRAVVFGGGTKLTVLG
